The values below come from paper PMC7610691 (Nature structural & molecular biology, 2020).

The labels stand for the following.
T1: Smc4 (S. cerevisiae condensin subunit) (S. cerevisiae, UniProt Q12267 1-1418)
T1 sequence: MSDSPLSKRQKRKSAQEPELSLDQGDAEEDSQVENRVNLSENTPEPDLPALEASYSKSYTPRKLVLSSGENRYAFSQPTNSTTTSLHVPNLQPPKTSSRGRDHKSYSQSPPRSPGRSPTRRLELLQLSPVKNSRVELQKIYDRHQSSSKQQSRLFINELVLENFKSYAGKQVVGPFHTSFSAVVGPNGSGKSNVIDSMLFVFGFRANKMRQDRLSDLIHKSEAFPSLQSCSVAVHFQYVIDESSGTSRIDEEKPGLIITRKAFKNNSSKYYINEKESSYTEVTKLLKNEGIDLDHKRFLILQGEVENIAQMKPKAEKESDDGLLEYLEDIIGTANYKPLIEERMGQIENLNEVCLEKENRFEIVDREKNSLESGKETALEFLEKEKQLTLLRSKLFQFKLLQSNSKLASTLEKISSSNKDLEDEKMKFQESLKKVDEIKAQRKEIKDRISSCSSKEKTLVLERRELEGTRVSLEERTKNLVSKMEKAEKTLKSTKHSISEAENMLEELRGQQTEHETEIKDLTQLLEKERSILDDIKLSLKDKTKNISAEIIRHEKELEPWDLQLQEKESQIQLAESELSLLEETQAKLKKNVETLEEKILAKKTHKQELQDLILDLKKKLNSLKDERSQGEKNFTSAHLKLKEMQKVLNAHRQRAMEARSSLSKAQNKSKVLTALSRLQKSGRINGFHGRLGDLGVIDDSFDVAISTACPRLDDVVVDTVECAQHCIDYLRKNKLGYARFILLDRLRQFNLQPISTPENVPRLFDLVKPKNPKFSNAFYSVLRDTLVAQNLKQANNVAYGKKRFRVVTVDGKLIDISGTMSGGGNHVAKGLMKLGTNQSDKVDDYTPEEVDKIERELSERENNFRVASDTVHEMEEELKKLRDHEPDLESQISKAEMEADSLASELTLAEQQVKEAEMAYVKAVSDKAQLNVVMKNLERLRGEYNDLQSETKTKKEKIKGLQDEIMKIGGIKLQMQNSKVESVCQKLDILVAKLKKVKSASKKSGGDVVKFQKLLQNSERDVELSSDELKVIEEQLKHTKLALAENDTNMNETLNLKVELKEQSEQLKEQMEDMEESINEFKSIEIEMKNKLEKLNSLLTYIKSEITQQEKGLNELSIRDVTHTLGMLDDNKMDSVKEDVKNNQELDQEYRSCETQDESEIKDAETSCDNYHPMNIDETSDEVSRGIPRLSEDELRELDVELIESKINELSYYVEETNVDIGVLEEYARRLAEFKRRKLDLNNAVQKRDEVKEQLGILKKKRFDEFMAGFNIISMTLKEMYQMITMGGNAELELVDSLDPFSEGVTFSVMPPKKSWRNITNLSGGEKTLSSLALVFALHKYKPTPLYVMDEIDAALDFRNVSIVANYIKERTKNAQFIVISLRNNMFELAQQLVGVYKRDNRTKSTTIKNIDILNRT

B1: Ycs4 (S. cerevisiae condensin HEAT-repeat subunit) (natural protein)
chain: MSGFSLSEYLTKFQTTDRESYPRLQDPSRELNVIIDQLAVSPEQIDASPDSLEALIDLCHDFPHLTPKLQTQLSYLISSSLSNLSKDIKANLSSNVNFTEIGGLIPQWKRHLEEYGYLIQVLLTFLQDELHKVSSQSTNLNRSAKNSKNDSANVELFKRDCNQMENLLESITKLLEINLSKIFQTTPEKDLFIGLFTRPLFVLLEIEPVTKVSSLKMFIQRILAMCVKNHGQSSSIQSSLMTNLTYFLHLSVFNAELLKLLNDEYNYPQLTEDILKEISTRVFNAKDTTGPKAISNFLIKLSELSPGIMLRQMNLVITLLNNSSITLRCSVVEACGNIVAELAQDPQTMEHYKQQIAVLIELLEERFQDSNPYVRTKAIQGCSKICDLSSKFNKSKAKFTSLAVRSLQDRSSLVRRNSVKLLSKLLLKHPFKAIHGSQLRLSEWEEYLKGSESQLNSTLKKVESQETLNDTIERSLIEEEVEQDEGQCRTELEGSFNKSAELSRIENEVENINATNTSVLMKLKLMIVYYKDAISFIKEIHKSIELISNLLFSKNRNEVLESMDFLVLADAFDIELSEFGIKKMLHLVWMKGTNDEGTSISVHLIECYKQLFLTAPDSCNMQEKAAHIAKNLINLSIGASIADLASLEQLLGMMYEQKLIDQHVINILWAIYNSASKASMQKEQNVNNRDSEKGFSKEQIHGSIIILGMLSLADNEIALKGLESLLNIGLGAVGLKDLTLCRYSCLALERMVPKRSTIITKAINQELEDVAVKKLYAIIINYTKDNEYYPMCEQALSALFTISSKPDILATDLIREKTMMTFGKPEEEDSILSLEQSSRVVSLSQLLFIVGQVAIKTLVYLEKCEAEFKKRKIEAETRNGKVKNQGADVTNTTQDNGGDKELEMIGGTNEDDFTDAIQFVKENELLFGEKSILGKFCPIVEEIVSNSSRFSDPMLQRTATLCLEKLMCLSSKYCEKSLPLLITVMEKSPDPTIRSNAVLGLGDMAVCFNNLVDENTDYLYRRLHDENLMVQRTCLMTVTFLILAGQVKVKGQLGEMAKCLDNPDQGISDMCRLFFTELASKDNAIYNGFIDIFSNLSSDDLLGKESFKKIIKFLLTFIDKERHQKQLNEKLVGRLRKCETQKQWDDIAFVLNNLPYKNEDVTALLEQGFKVVSAKE
B2: Smc2 (S. cerevisiae condensin subunit) (natural protein)
chain: MKVEELIIDGFKSYATRTVITDWDPQFNAITGLNGSGKSNILDAICFVLGIASMSTVRASSLQDLIYKRGQAGVTKASVTIVFDNTDKSNSPIGFTNSPQISVTRQVVLGGTSKYLINGHRAPQQSVLQLFQSVQLNINNPNFLIMQGKITKVLNMKPSEILSLIEEAAGTKMFEDRREKAERTMSKKETKLQENRTLLTEEIEPKLEKLRNEKRMFLEFQSTQTDLEKTERIVVSYEYYNIKHKHTSIRETLENGETRMKMLNEFVKKTSEEIDSLNEDVEEIKLQKEKELHKEGTISKLENKENGLLNEISRLKTSLSIKVENLNDTTEKSKALESEIASSSAKLIEKKSAYANTEKDYKMVQEQLSKQRDLYKRKEELVSTLTTGISSTGAADGGYNAQLAKAKTELNEVSLAIKKSSMKMELLKKELLTIEPKLKEATKDNELNVKHVKQCQETCDKLRARLVEYGFDPSRIKDLKQREDKLKSHYYQTCKNSEYLKRRVTNLEFNYTKPYPNFEASFVHGVVGQLFQIDNDNIRYATALQTCAGGRLFNVVVQDSQTATQLLERGRLRKRVTIIPLDKIYTRPISSQVLDLAKKIAPGKVELAINLIRFDESITKAMEFIFGNSLICEDPETAKKITFHPKIRARSITLQGDVYDPEGTLSGGSRNTSESLLVDIQKYNQIQKQIETIQADLNHVTEELQTQYATSQKTKTIQSDLNLSLHKLDLAKRNLDANPSSQIIARNEEILRDIGECENEIKTKQMSLKKCQEEVSTIEKDMKEYDSDKGSKLNELKKELKLLAKELEEQESESERKYDLFQNLELETEQLSSELDSNKTLLHNHLKSIESLKLENSDLEGKIRGVEDDLVTVQTELNEEKKRLMDIDDELNELETLIKKKQDEKKSSELELQKLVHDLNKYKSNTNNMEKIIEDLRQKHEFLEDFDLVRNIVKQNEGIDLDTYRERSKQLNEKFQELRKKVNPNIMNMIENVEKKEAALKTMIKTIEKDKMKIQETISKLNEYKRETLVKTWEKVTLDFGNIFADLLPNSFAKLVPCEGKDVTQGLEVKVKLGNIWKESLIELSGGQRSLIALSLIMALLQFRPAPMYILDEVDAALDLSHTQNIGHLIKTRFKGSQFIVVSLKEGMFANANRVFRTRFQDGTSVVSIM

Assay [1] concerns the target T1, Smc4 (S. cerevisiae condensin subunit). The experiment in a line: cryo-EM structure.
Assay [2] deals with B1. As to the kind of experiment: cross-linking.

For B1, the binding result in assay [1] was “binds”.

Turning to B2, the binding result in assay [2] and in assay [1] was “binds” in each case.
